The series is described as follows: soluble on expression in E. coli; label from the status in PepcDB or PDB records.
Take “MAERGGDGGESERFNPGELRMAQQQALRFRGPAPPPNAVMRGPPPLMRPPPPFGMMRGPPPPPRPPFGRPPFDPNMPPMPPPGGIPPPMGPPHLQRPPFMPPPMSSMPPPPGMMFPPGMPPVTAPGTPALPPTEEIWVENKTPDGKVYYYNARTRESAWTKPDGVKVIQQSELTPMLAAQAQVQAQAQAQAQAQAQAQAQAQAQAQAQAQAQAQAQAQAQAQAQAQAQAQAQAQAQAQAQAQVQAQVQAQVQAQAVGASTPTTSSPAPAVSTSTSSSTPSSTTSTTTTATSVAQTVSTPTTQDQTPSSAVSVATPTVSVSTPAPTATPVQTVPQPHPQTLPPAVPHSVPQPTTAIPAFPPVMVPPFRVPLPGMPIPLPGVLPGMAPPIVPMIHPQVAIAASPATLAGATAVSEWTEYKTADGKTYYYNNRTLESTWEKPQELKEKEKLEEKIKEPIKEPSEEPLPMETEEEDPKEEPIKEIKEEPKEEEMTEEEKAAQKAKPVATAPIPGTPWCVVWTGDERVFFYNPTTRLSMWDRPDDLIGRADVDKIIQEPPHKKGMEELKKLRHPTPTMLSIQKWQFSMSAIKEEQELMEEINEDEPVKAKKRKRDDNKDIDSEKEAAMEAEIKAARERAIVPLEARMKQFKDMLLERGVSAFSTWEKELHKIVFDPRYLLLNPKERKQVFDQYVKTRAEEERREKKNKIMQAKEDFKKMMEEAKFNPRATFSEFAAKHAKDSRFKAIEKMKDREALFNEFVAAARKKEKEDSKTRGEKIKSDFFELLSNHHLDSQSRWSKVKDKVESDPRYKAVDSSSMREDLFKQYIEKIAKNLDSEKEKELERQARIEASLREREREVQKARSEQTKEIDREREQHKREEAIQNFKALLSDMVRSSDVSWSDTRRTLRKDHRWESGSLLEREEKEKLFNEHIEALTKKKREHFRQLLDETSAITLTSTWKEVKKIIKEDPRCIKFSSSDRKKQREFEEYIRDKYITAKADFRTLLKETKFITYRSKKLIQESDQHLKDVEKILQNDKRYLVLDCVPEERRKLIVAYVDDLDRRGPPPPPTASEPTRRSTK”: the “soluble on expression in E. coli” value is “soluble”.
As for “MGSSHHHHHHGGTGENLYFQGGSGSSVTPTIPFKAWLKLHAKAICQALPLSLLIVVEARDLYYRATWDVAPVPPSKFEVGDVIAVCNRWYTLPTWSHVVYSWLSKVLLKSCWDDVGVISSVKNGTPHILYVDFHGVHEQPLATFLETRCPRGAAVRKLRRDEGVPSPSPAIADLFRKEVEMISVEPWFLFSASMRGGNEHKYYEFCVRMHEQRCKIRSMLQRRQSRPAIEAQQTSLKEMEVMRQHLAKFVEPVTHFHLYNGSLVASFFATYGLLDREMPSPSRYVPQDFAHTIPFLGATTLDEPIVFFRN”, the “soluble on expression in E. coli” value is “not soluble”.
The same measure for “MGSDKIHHHHHHMPRGDIGIDLGTASIIVYKRGEGIVLHEPSVVAISEKTGEIVAIGEEAKKMLGKTPEGLKAIRPMKDGVIADYRMIEAIIRNFLKKIIGRFSFVKPSLIIGVPTKITEVEKRAVFEAGLNAGARRVHIVSEPIAAAIGAGIDVMASEGNMVVDIGGGTTDIAVISLGGTVVGESVRMAGDAMDEAIVKFIRKKYGLIIGESTAEEIKKRIGKTHPAFENYEIEIKGRDVVTGLPRTDRVSSEDVREAIEPIIFALLTKLKNVLERTPPELSADIINNGIRLTGGGALLRGLDRTIYDEIHVKTIVADDPITCVARGTGILLEDEKLLKTVCETYSR”: “not soluble”.
For “MGSDKIHHHHHHMNNPISDDYRNLLVEVKQRIRSAQYEALKAVNKELIALYWDIGKMIVTQQQEADWGKSVVEQLAKDLQTEFPGISGFSTRNMWNMRSFYIAYSQNEKLQPLVAEIGWTHNIVILEKCKDDLEREFYLRMTRKFGWTKNVLIHQIENQTYEKTLLNQTNFNQTVPAEIRNQLKLAVKDEYTFDFLELADEHSERQLEQAILARVEPFLQEMGGRFTFVGSQYRLEIGDQEFFIDLLLYHRQLKCLVAVELKTGEFLPEYVGKMQFYLAALDDLSRLPDENLSIGIILCKSKNKTIVEYALRESNKPIGVATYKVFSSLPQDLRNQLPAPEQVAKLLEGVE”, the “soluble on expression in E. coli” value is listed as “not soluble”.
Under “MILINKRAEKQDYQTILAIWEKSVIVTHDFLTAEDRQFYKEQIPLFLDNVELFLWFAGEEVIGFSGTSERELDMLFLDPVATGNGYGSQILGWLIENKRINLVDVNEQNENATRFYLKHGFVVSSRSDLDGFGKPYPILQLQLKERVNGV” stands “soluble”.

Values taken from the DeepSol protein solubility set.
